From the supplement of paper PMC7877785
± gives the uncertainty stated by the source.

Test: self-splicing fitness, log relative to wild type (ln ratio); higher = more splicing; Tetrahymena group I intron in knt gene, E. coli kanamycin selection, DiMSum; sequences stand for … in CUCUCU…GGAGGGAAAAGUUAUCAGGCAUGCACCUGGUAGCUAGUCUUUAAACCAAUAGAUUGCAUCGGUUUAAAAGGCAAGACCGUCAAAUUGCGGGAAAGGGGUCAACAGCCGUUCAGUACCAAGUCUCAGGGGAAACUUUGAGAUGGCCUUGCAAAGGGUAUGGUAAUAAGCUGACGGACAUGGUCCUAACCACGCAGCCAAGUCCUAAGUCAACAGAUCUUCUGUUGAUAUGGAUGCAGUUCACAGACUAAAUGUCGGUCGGGGAAGAUGUAUUCUUCUCAUAAGAUAUAGUCGGACCUCUCCUUAAUGGGAGCUAGCGGAUGAAGUGAUGCAACACUGGAGCCGCUGGGAACUAAUUUGUAUGCGAAAGUAUAUUGAUUAGUUUUGGAGUACUCGUGGUCG
In short: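 Fitness was computed with DiMSum as the error-weighted combination of replicate fold changes, kanamycin versus none, each normalised to wild type. The library randomised all eight intron nucleotides of the P1ex region, with the intron placed in the knt kanamycin-resistance gene on pET-22b(+) in E. coli BL21(DE3). Six replicate transformations were grown overnight at 37°C or 30°C on LB agar with or without 25 μg/mL kanamycin, plus 100 μg/mL carbenicillin, 50 μM IPTG and 0.2% rhamnose. Pooled colonies were amplicon-sequenced on an Illumina HiSeq 2500.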

Sequence | self-splicing fitness (ln) (30 °C) | self-splicing fitness (ln) (37 °C)
CCCUAGCAAUAUUACGUGAU | -2.33 ± 0.076 | -2.27 ± 0.14
CCCUAGCAAUAUUACGUGCA | -3.99 ± 0.18 | -2.92 ± 0.14
CCCUAGCAAUAUUACGUGCU | -2.99 ± 0.17 | -2.58 ± 0.24
CCCUAGCAAUAUUACGUUCC | -2.3 ± 0.22 | -2.11 ± 0.24
CCGAAGCAAUAUUACGAAGU | -3.15 ± 0.19 | -2.8 ± 0.29
CCGAAGCAAUAUUACGACCU | -3.73 ± 0.32 | -2.3 ± 0.36
CCGAAGCAAUAUUACGAGGG | -3 ± 0.18 | -1.73 ± 0.22
CCGAAGCAAUAUUACGAUGU | -3.33 ± 0.27 | -1.86 ± 0.15
CCGAAGCAAUAUUACGCGCG | -1.23 ± 0.11 | 0.0615 ± 0.12
CCGAAGCAAUAUUACGGCAA | -3.61 ± 0.38 | -1.98 ± 0.38
CCGAAGCAAUAUUACGGCAC | -4.15 ± 0.31 | -2.37 ± 0.33
CCGAAGCAAUAUUACGGCGG | -3.48 ± 0.15 | -2.15 ± 0.17
CCGAAGCAAUAUUACGGUCA | -3.56 ± 0.2 | -2.55 ± 0.18
CCGAAGCAAUAUUACGUAUC | -2.92 ± 0.24 | -3.03 ± 0.25
CCGAAGCAAUAUUACGUCGC | -3.18 ± 0.26 | -3.07 ± 0.34
CCGAAGCAAUAUUACGUCGG | -3.35 ± 0.2 | -2.59 ± 0.31
CCGAAGCAAUAUUACGUGAC |  | -1.4 ± 0.2
CCGAAGCAAUAUUACGUGUU | -3.93 ± 0.16 | -2.89 ± 0.15
CCGAAGCAAUAUUACGUUGU | -4.15 ± 0.32 | -3.37 ± 0.24
CCGCAGCAAUAUUACGACAG | -0.485 ± 0.063 | 0.0928 ± 0.088
CCGCAGCAAUAUUACGAGGU | -3.73 ± 0.2 | -1.84 ± 0.19
CCGCAGCAAUAUUACGAUCC | -3.04 ± 0.19 | -2.71 ± 0.36
CCGCAGCAAUAUUACGAUGA | -3.2 ± 0.38 | 
CCGCAGCAAUAUUACGAUGC | -4.08 ± 0.28 | -2.88 ± 0.23
CCGCAGCAAUAUUACGAUGG | -4.91 ± 0.28 | -2.52 ± 0.2

Sequence | self-splicing fitness (ln) (30 °C) | self-splicing fitness (ln) (37 °C)
CCGCAGCAAUAUUACGCGCG | -3.21 ± 0.2 | -1.9 ± 0.17
CCGCAGCAAUAUUACGCGUU | -3.51 ± 0.14 | -2.29 ± 0.14
CCGCAGCAAUAUUACGCUAU | -3.78 ± 0.3 | -3.04 ± 0.25
CCGCAGCAAUAUUACGCUCA |  | -1.28 ± 0.21
CCGCAGCAAUAUUACGCUGA | -3.21 ± 0.34 | 
CCGCAGCAAUAUUACGGCCA | -4.11 ± 0.31 | -2.51 ± 0.26
CCGCAGCAAUAUUACGGCGG | -4.17 ± 0.22 | -3.33 ± 0.26
CCGCAGCAAUAUUACGGGCC | -2.9 ± 0.25 | -2.34 ± 0.29
CCGCAGCAAUAUUACGGGGA | -3.59 ± 0.15 | -2.35 ± 0.15
CCGCAGCAAUAUUACGGUAC | -3.8 ± 0.17 | -2.8 ± 0.2
CCGCAGCAAUAUUACGGUAU | -4.73 ± 0.23 | -3.44 ± 0.17
CCGCAGCAAUAUUACGUACC | -3.7 ± 0.28 | -3.08 ± 0.47
CCGCAGCAAUAUUACGUAGG | -2.6 ± 0.068 | -2.95 ± 0.13
CCGCAGCAAUAUUACGUCGA | -1.06 ± 0.059 | -0.16 ± 0.069
CCGCAGCAAUAUUACGUGUU | -3.84 ± 0.14 | -3.1 ± 0.21
CCGGAGCAAUAUUACGAAAU | -3.2 ± 0.27 | -0.842 ± 0.37
CCGGAGCAAUAUUACGAACC |  | -1.97 ± 0.41
CCGGAGCAAUAUUACGAGAC | -2.99 ± 0.38 | 
CCGGAGCAAUAUUACGAGAU | -3.24 ± 0.18 | -3.52 ± 0.35
CCGGAGCAAUAUUACGAGGC | -1.99 ± 0.34 | -2.86 ± 0.38
CCGGAGCAAUAUUACGAUUA | -3.79 ± 0.37 | -1.17 ± 0.3
CCGGAGCAAUAUUACGCCUG | -2.36 ± 0.24 | -1.8 ± 0.24
CCGGAGCAAUAUUACGCGCA | -2.85 ± 0.21 | -2.29 ± 0.22
CCGGAGCAAUAUUACGCUAA | -2.65 ± 0.26 | -2.96 ± 0.35
CCGGAGCAAUAUUACGCUGA | -1.42 ± 0.29 | -1.75 ± 0.45
